Legend:
[1] = molecular target: his-tagged C-terminal fragment from CA125 (UniProt Q8WXI7); assay: SPR (BiaCore T200): fusion protein captured on Protein A chip, his-tagged C-terminal CA125 fragment as analyte; one MCB domain (MCB domain-1X, SEQ ID: 4)
[2] = molecular target: his-tagged C-terminal fragment from CA125 (UniProt Q8WXI7); assay: SPR (BiaCore T200): fusion protein captured on Protein A chip, his-tagged C-terminal CA125 fragment as analyte; two MCB domains (MCB domain-2X, SEQ ID: 2)

Kd [1]	Kd [2]	Substance
0.0652 nM		MCB domain-1X fusion protein (single MCB domain of mesothelin linked to the N-terminus of the human IgG1 Fc heavy chain) (Fc fusion)
	0.0149 nM	MCB domain-2X fusion protein (two MCB domains of mesothelin linked via a single spacer unit to the N-terminus of the human IgG1 Fc heavy chain) (Fc fusion)

— patent US20210040174A1
